# In patent US20240392020A1 (JIANGSU HENGRUI PHARMACEUTICALS, published 2024):
# T1: CEA on MKN45 cells (UniProt P06731 35-685)
# T1 construct: whole, on cells
# T1 sequence (looked up): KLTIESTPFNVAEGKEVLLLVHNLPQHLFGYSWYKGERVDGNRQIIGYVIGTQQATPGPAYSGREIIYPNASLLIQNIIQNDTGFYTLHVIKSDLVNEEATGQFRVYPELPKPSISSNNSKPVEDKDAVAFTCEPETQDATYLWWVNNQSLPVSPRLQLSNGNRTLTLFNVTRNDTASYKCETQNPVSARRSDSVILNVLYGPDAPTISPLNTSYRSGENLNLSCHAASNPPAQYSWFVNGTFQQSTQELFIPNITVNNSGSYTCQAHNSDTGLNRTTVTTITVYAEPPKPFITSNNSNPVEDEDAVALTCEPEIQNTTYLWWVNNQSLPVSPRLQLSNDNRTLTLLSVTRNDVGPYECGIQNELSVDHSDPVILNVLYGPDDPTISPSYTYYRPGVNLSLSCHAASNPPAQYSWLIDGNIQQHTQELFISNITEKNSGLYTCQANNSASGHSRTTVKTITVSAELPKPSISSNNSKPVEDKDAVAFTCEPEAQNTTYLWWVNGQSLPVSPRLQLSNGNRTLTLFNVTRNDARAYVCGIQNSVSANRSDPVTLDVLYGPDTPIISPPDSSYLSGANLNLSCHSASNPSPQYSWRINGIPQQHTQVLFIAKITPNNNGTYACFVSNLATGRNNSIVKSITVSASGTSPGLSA
# Legend:
# CEA on MKN45 cells = biological target: T1, CEA on MKN45 cells; test: FACS, MKN45 cells
# hPDL1 antigen = biological target: T2, hPDL1 antigen (human, UniProt Q9NZQ7 19-239, limits assumed); test: ELISA
# T2 construct: bought
# T2 sequence (Q9NZQ7 19-239 limits assumed): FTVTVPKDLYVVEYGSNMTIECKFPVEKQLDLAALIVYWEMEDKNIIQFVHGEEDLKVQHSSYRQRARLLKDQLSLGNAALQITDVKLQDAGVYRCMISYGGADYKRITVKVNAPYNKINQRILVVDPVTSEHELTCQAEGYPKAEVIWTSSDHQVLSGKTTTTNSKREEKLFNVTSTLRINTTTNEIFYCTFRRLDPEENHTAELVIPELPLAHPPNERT
# Description: For an antibody targeting a soluble protein, the binding activity of the antibody against the soluble protein was detected by ELISA. […] After the blocking was completed, the blocking solution was discarded; and the plate was washed 3 times with a PBST buffer (pH 7.4, PBS containing 0.1% tween-20). 100 μL of the antibody solution diluted in a gradient was added to each well, and the mixture was incubated at 37° C. for 1 h. After the incubation was completed, the plate was washed 3 times with PBST. […] The plate was washed 3 times with PBST. […] The reaction was stopped by adding 50 μL of 1 M H₂SO₄ to each well. The absorbance values at 450 nm were read on a microplate reader, the binding curves of the antibodies to an antigen were fitted with software, and the EC₅₀ values were calculated.
Binder,EC50 (CEA on MKN45 cells) [nM],EC50 (hPDL1 antigen) [nM]
N17 (antibody) heavy: not shown light: EIVLTQSPGTLSLSPGERATLSCRASQNINNRFLAWYQQRPGQAPRLLIYAASSRATGVPDRFSGSGSGTDFTLTISRLEAEDFAMYHCQQYGSFPRTFGQGTMVDIKDQPQFSGAPRFLTRPKAFVVSVGKDATLSSQIVGNPTPQVSWEKDQQPVAAGARFRLAQDGDLYRLTILDLALGDSGQYVSRARNAIGEAFACVGLQVDAEA,2.2,–
N20 (antibody) heavy: not shown light: EIVLTQSPGTLSLSPGERATLSCRASQNINNRFLAWYQQRPGQAPRLLIYAASSRATGVPDRFSGSGSGTDFTLTISRLEAEDFAMYHCQQYGSFPRTFGQGTMVDIKDQPQFSGAPRFKTRPKAFVVSVGKDATLSSQIVGNPTPQVSWEKDQQPVAAGARFRLAQDGDLYRLKILDLALGDSGQYVSRARNAIGEAFACVGLQVDAEA,2.8,–
N18 (antibody) heavy: not shown light: EIVLTQSPGTLSLSPGERATLSCRASQNINNRFLAWYQQRPGQAPRLLIYAASSRATGVPDRFSGSGSGTDFTLTISRLEAEDFAMYHCQQYGSFPRTFGQGTMVDIKDQPQFSGAPRFLTRPKAFVVSVGKDATLSSQIVGNPTPQVSWEKDQQPVAAGARFRLAQDGDLYRLTILDLALGDSGQYVSRARNAIGEAFACVGLQVDAEA,3.2,–
N14 (antibody) heavy: not shown light: EIVLTQSPGTLSLSPGERATLSCRASQNINNRFLAWYQQRPGQAPRLLIYAASSRATGVPDRFSGSGSGTDFTLTISRLEAEDFAMYHCQQYGSFPRTFGQGTMVDIKSGAPRFLTRPLAFVVSVGKDATLSSQIVGNPTPQVSWEKDQQPVAAGARFRLAQDGDLYRLKILDLALGDSGQYVSRARNAIGEAFACVGLQVDAEA,1.9,–
N16 (antibody) heavy: not shown light: EIVLTQSPGTLSLSPGERATLSCRASQNINNRFLAWYQQRPGQAPRLLIYAASSRATGVPDRFSGSGSGTDFTLTISRLEAEDFAMYHCQQYGSFPRTFGQGTMVDIKSGAPRFLTRPLAFVVSVGKDATLSSQIVGNPTPQVSWEKDQQPVAAGARFRLAQDGDLYRLHILDLALGDSGQYVSRARNAIGEAFACVGLQVDAEA,3.4,–
N13 (antibody) heavy: not shown light: EIVLTQSPGTLSLSPGERATLSCRASQNINNRFLAWYQQRPGQAPRLLIYAASSRATGVPDRFSGSGSGTDFTLTISRLEAEDFAMYHCQQYGSFPRTFGQGTMVDIKSGAPRFKTRPKAFVVSVGKDATLSSQIVGNPTPQVSWEKDQQPVAAGARFRLAQDGDLYRLHILDLALGDSGQYVSRARNAIGEAFACVGLQVDAEA,2.9,–
N15 (antibody) heavy: not shown light: EIVLTQSPGTLSLSPGERATLSCRASQNINNRFLAWYQQRPGQAPRLLIYAASSRATGVPDRFSGSGSGTDFTLTISRLEAEDFAMYHCQQYGSFPRTFGQGTMVDIKSGAPRFLTRPLAFVVSVGKDATLSSQIVGNPTPQVSWEKDQQPVAAGARFRLAQDGDLYRLKILDLALGDSGQYVSRARNAIGEAFACVGLQVDAEA,2.6,–
N10 (antibody) heavy: not shown light: EIVLTQSPGTLSLSPGERATLSCRASQNINNRFLAWYQQRPGQAPRLLIYAASSRATGVPDRFSGSGSGTDFTLTISRLEAEDFAMYHCQQYGSFPRTFGQGTMVDIKSGAPRFLTRPKAFVVSVGKDATLSSQIVGNPTPQVSWEKDQQPVAAGARFRLAQDGDLYRLTILDLALGDSGQYVSRARNAIGEAFACVGLQVDAEA,3,–
"PL-1 (bispecific antibody, human IgG1, kappa, L234A L235A) heavy 1: not shown light 1: DIVLTQSPASLAVSPGQRATITCRASESVSIHGTHLMHWYQQKPGQPPKLLIYAASKLESGVPARFSGSGSGTDFTLTINPVEAEDTANYYCQQSFEDPLTFGQGTKLEIKGGGGSGIPPKIECLPIDISIDEGKVLTVASAFTGEPTPEVTWSTGGRKIHSQEQGRFHIENTDDLTTLIIKDVQKQDGGLYTLTLRNEFGSDSATVNIHIRSI heavy 2: not shown light 2: not shown",–,1.6

# Now from value to binder:
EC50 (CEA on MKN45 cells) [nM],EC50 (hPDL1 antigen) [nM],Binder
0.62,–,N25 (antibody) heavy: not shown light: EIVLTQSPGTLSLSPGERATLSCRASQNINNRFLAWYQQRPGQAPRLLIYAASSRATGVPDRFSGSGSGTDFTLTISRLEAEDFAMYHCQQYGSFPRTFGQGTMVDIKGGGGSGGGGSSGAPRFLTRPKAFVVSVGKDATLSSQIVGNPTPQVSWEKDQQPVAAGARFRLAQDGDLYRLTILDLALGDSGQYVSRARNAIGEAFACVGLQVDAEA
0.67,–,N27 (antibody) heavy: not shown light: EIVLTQSPGTLSLSPGERATLSCRASQNINNRFLAWYQQRPGQAPRLLIYAASSRATGVPDRFSGSGSGTDFTLTISRLEAEDFAMYHCQQYGSFPRTFGQGTMVDIKGGGGSGGGGSSGAPRFLTRPKAFVVSVGKDATLSSQIVGNPTPQVSWEKDQQPVAAGARFRLAQDGDLYRLTILDLALGDSGQYVSRARNAIGEAFACVGLQVDAEA
0.84,–,N26 (antibody) heavy: not shown light: EIVLTQSPGTLSLSPGERATLSCRASQNINNRFLAWYQQRPGQAPRLLIYAASSRATGVPDRFSGSGSGTDFTLTISRLEAEDFAMYHCQQYGSFPRTFGQGTMVDIKGGGGSSGAPRFLTRPKAFVVSVGKDATLSSQIVGNPTPQVSWEKDQQPVAAGARFRLAQDGDLYRLTILDLALGDSGQYVSRARNAIGEAFACVGLQVDAEA
4.3,–,N19 (antibody) heavy: not shown light: EIVLTQSPGTLSLSPGERATLSCRASQNINNRFLAWYQQRPGQAPRLLIYAASSRATGVPDRFSGSGSGTDFTLTISRLEAEDFAMYHCQQYGSFPRTFGQGTMVDIKDQPQFSGAPRFKTRPKAFVVSVGKDATLSSQIVGNPTPQVSWEKDQQPVAAGARFRLAQDGDLYRLKILDLALGDSGQYVSRARNAIGEAFACVGLQVDAEA
9.4,–,N23 (antibody) heavy: not shown light: EIVLTQSPGTLSLSPGERATLSCRASQNINNRFLAWYQQRPGQAPRLLIYAASSRATGVPDRFSGSGSGTDFTLTISRLEAEDFAMYHCQQYGSFPRTFGQGTMVDIKDQPQFSGAPRFRTRPKAFVVSVGKDATLSSQIVGNPTPQVSWEKDQQPVAAGARFRLAQDGDLYRLHILDLALGDSGQYVSRARNAIGEAFACVGLQVDAEA
6.7,–,N24 (antibody) heavy: not shown light: EIVLTQSPGTLSLSPGERATLSCRASQNINNRFLAWYQQRPGQAPRLLIYAASSRATGVPDRFSGSGSGTDFTLTISRLEAEDFAMYHCQQYGSFPRTFGQGTMVDIKDQPQFSGAPRFRTRPKAFVVSVGKDATLSSQIVGNPTPQVSWEKDQQPVAAGARFRLAQDGDLYRLHILDLALGDSGQYVSRARNAIGEAFACVGLQVDAEA
5.2,–,N21 (antibody) heavy: not shown light: EIVLTQSPGTLSLSPGERATLSCRASQNINNRFLAWYQQRPGQAPRLLIYAASSRATGVPDRFSGSGSGTDFTLTISRLEAEDFAMYHCQQYGSFPRTFGQGTMVDIKDQPQFSGAPRFKTRPKAFVVSVGKDATLSSQIVGNPTPQVSWEKDQQPVAAGARFRLAQDGDLYRLHILDLALGDSGQYVSRARNAIGEAFACVGLQVDAEA
4.5,–,N22 (antibody) heavy: not shown light: EIVLTQSPGTLSLSPGERATLSCRASQNINNRFLAWYQQRPGQAPRLLIYAASSRATGVPDRFSGSGSGTDFTLTISRLEAEDFAMYHCQQYGSFPRTFGQGTMVDIKDQPQFSGAPRFRTRPKAFVVSVGKDATLSSQIVGNPTPQVSWEKDQQPVAAGARFRLAQDGDLYRLKILDLALGDSGQYVSRARNAIGEAFACVGLQVDAEA
–,0.6,"PL-3 (bispecific antibody, human IgG1, kappa, L234A L235A) heavy 1: not shown light 1: DIVLTQSPASLAVSPGQRATITCRASESVSIHGTHLMHWYQQKPGQPPKLLIYAASKLESGVPARFSGSGSGTDFTLTINPVEAEDTANYYCQQSFEDPLTFGQGTKLEIKGGGGSGIPPKIECLPIDISIDEGKCLTVASAFTGEPTPEVTWSTGGRKIHSQEQGRFHIENTDDSTTLTIKDVQKQDGGLYTLTLRNEFGSDSATVNIHIRSI heavy 2: not shown light 2: not shown"
–,0.7,"PL-5 (bispecific antibody, human IgG1, kappa, L234A L235A) heavy 1: not shown light 1: DIVLTQSPASLAVSPGQRATITCRASESVSIHGTHLMHWYQQKPGQPPKLLIYAASKLESGVPARFSGSGSGTDFTLTINPVEAEDTANYYCQQSFEDPLTFGQGTKLEIKGGGGSGIPPKIECLPIDISIDEGKVLTVASAFTGEPTPEVTWSTGGRKIHSQEQGRFHIENTDDSTTLTIKDVQKQDGGLYTLTLRNEFGSDSATVNIHIRSI heavy 2: not shown light 2: not shown"
–,0.7,"PL-4 (bispecific antibody, human IgG1, kappa, L234A L235A) heavy 1: not shown light 1: DIVLTQSPASLAVSPGQRATITCRASESVSIHGTHLMHWYQQKPGQPPKLLIYAASKLESGVPARFSGSGSGTDFTLTINPVEAEDTANYYCQQSFEDPLTFGQGTKLEIKGGGGSGIPPKIECLPIDISIDEGKVLTVASCFTGEPTPEVTWSTGGRKIHSQEQGRFHIENTDDSTTLTIKDVQKQDGGLYTLTLRNEFGSDSATVNIHIRSI heavy 2: not shown light 2: not shown"
–,0.5,"PL-2 (bispecific antibody, human IgG1, kappa, L234A L235A) heavy 1: not shown light 1: DIVLTQSPASLAVSPGQRATITCRASESVSIHGTHLMHWYQQKPGQPPKLLIYAASKLESGVPARFSGSGSGTDFTLTINPVEAEDTANYYCQQSFEDPLTFGQGTKLEIKGGGGSGIPPKIECLPIDISIDEGKVLTVASAFTGEPTPEVTWSTGGRKIHSQEQGRFHIENTDDSTTLTIKDVQKQDGGLYTLTLRNEFGSDSATVNIHIRSI heavy 2: not shown light 2: not shown"
